Experimental data taken from patent US20030180296A1 (Human Genome Sciences, published 2003).

What was measured:
TR7-Fc fusion protein [1] = target: T1, TR7-Fc fusion protein (human, UniProt O14763 52-184); assay: competition ELISA, inhibition of biotinylated TRAIL binding to captured TR7-Fc; first of two lots
T1 construct: also called TR7-Fc receptor; TRAILR2; not shown: Fc region
Method: (§1) Goat anti-human Fc is diluted to 0.1 micrograms/ml in coating buffer. An Immulon 4 microplate is coated with 100 microliters per well of the Goat anti-human Fc solution and incubated overnight at 4° C. The coating solution is decanted from the plate, and blocking solution is dispensed at 200 microliters per well. The plate is incubated at room temperature for 1 hour. After the 1 hour incubation period, the blocking solution is decanted from the plate and 1 microgram/mL of TR7-Fc is dispensed at 100 microliters/well and incubated for 2 hours at room temperature. After the incubation, the plate is washed five times manually using a Wheaton manifold.
(§2) Antibodies corresponding to scFvs of the present invention are (previously) prepared in a low binding dilution plate using diluent. The antibodies are prepared in duplicate and are diluted from the stock concentration with 2.5 fold dilutions for the 7 subsequent wells. If a purified form of the antibody is available, the starting concentration is 5 micrograms/mL. The positive control (TR7-Fc) is diluted from 5 micrograms/mL. 100 microliters is transferred into the ELISA plate and pre-incubated for 30 minutes at room temperature. […]
(§3) After the one-hour incubation, the plate is decanted and washed with PBST five times and blotted. […] The plate is immediately read at 450 nm using the spectrometer from Molecular Devices.

TR7-Fc fusion protein [2] = target: T1, TR7-Fc fusion protein; assay: competition ELISA, inhibition of biotinylated TRAIL binding to captured TR7-Fc; second of two lots
Method: as §1, §2, §3

TR7-Fc fusion protein [3] = target: T1, TR7-Fc fusion protein; assay: SPR (BIAcore 2000), TR7-Fc amine-coupled on CM5 chip, 1:1 Langmuir model, mean of three experiments; second lot
Method: (§4) TR7-Fc and TR2-Fc were immobilized on individual flow cells of a BIAcore CM5 sensor chip (BIAcore, Cat # BR-1000-14). Amine coupling (BIAcore, Cat # BR-1000-50) was used to covalently bind each receptor to the dextran matrix on the sensor chip. The optimal pH for this coupling was analyzed using preconcentration experiments ranging from pH 4-7 and was determined to be pH 4.0 based on the slope of the binding. The actual coupling was performed using the manual injection mode. A target level of 200 relative units (RU) was set as the goal for both flow cells. A response of 1000 RU correlates to a change in surface concentration of about 1 ng/mm² for proteins. The molecular weight of the TR7 and TR2 fusion proteins was nearly identical. The concentration of both receptors for immobilization was 5 μg/ml in 10 mM acetate, pH 4.0 (BIAcore, Cat # BR-1003-49). The entire experiment was performed at a flow rate of 5 μL/min. Contact time for the N-ethyl-N′-(3-dimethylaminoprolpyl)carbodiimide hydrochloride/Ethanolamine hydrochloride-NaOH, pH 8.5 (EDC/NHS) injection was 3 minutes. The ethanolamine was injected for 3 minutes.
(§5) Analysis of CM005G08 kinetics was performed using the BIAcore 2000 instrument with the 2000 control software, version 3.1.1. […] The off rate of CM005G08 was determined by washing the complex in the presence of HBS-EP buffer for 10 minutes. […]

TR7-Fc fusion protein [4] = target: T1, TR7-Fc fusion protein; assay: SPR (BIAcore 2000), TR7-Fc amine-coupled on CM5 chip, 1:1 Langmuir model, mean of three experiments; first lot
Method: as §4, §5

TR7-Fc fusion protein [5] = target: T1, TR7-Fc fusion protein; assay: competition ELISA, inhibition of biotinylated TRAIL binding to captured TR7-Fc; unlabelled TRAIL as competitor
Method: as §1, §2, §3

B1: whole IgG1 antibody comprising the VH and VL domains of the CM005G08 scFv (antibody, V domains shown)
VH: EVQLVQSGGGVERPGGSLRLSCAASGFTFDDYGMSWVRQAPGKGLEWVSGINWNGGSTGYADSVKGRVTISRDNAKNSLYLQMNSLRAEDTAVYYCAKILGAGRGWYFDLWGKGTTVTVSS
VL: SSELTQDPAVSVALGQTVRITCQGDSLRSYYASWYQQKPGQAPVLVIYGKNNRPSGIPDRFSGSSSGNTASLTITGAQAEDEADYYCNSRDSSGNHVVFGGGTKLTVLG
notes: 3.75 ug/mL = 25 nM implies a whole IgG; also called CM005G08 (IgG1 format); anti-TR7 antibody
Question: For B1, which IC50 (TR7-Fc fusion protein [1]) is on record?
Answer: 5.3 nM

Question: And the IC50 (TR7-Fc fusion protein [2])?
Answer: 6.89 nM

Question: What about the Kd (TR7-Fc fusion protein [3]) of the same binder?
Answer: 0.33 nM

Question: And the koff (TR7-Fc fusion protein [3])?
Answer: 0.00268 s⁻¹

Question: And the Kd (TR7-Fc fusion protein [4])?
Answer: 0.25 nM

Question: And the koff (TR7-Fc fusion protein [4])?
Answer: 0.00266 s⁻¹

B2: TRAIL (ligand)
chain: TSEETISTVQEKQQNISPLVRERGPQRVAAHITGTRGRSNTLSSPNSKNEKALGRKINSWESSRSGHSFLSNLHLRNGELVIHEKGFYYIYSQTYFRFQEEIKENTKNDKQMVQYIYKYTSYPDPILLMKSARNSCWSKDAEYGLYSIYQGGIFELKENDRIFVSVTNEHLIDMDHEASFFGAFLVG
notes: also called soluble TRAIL ligand; AIM-I
Question: For B2, which IC50 (TR7-Fc fusion protein [5]) is on record?
Answer: 1.77 nM
